Measured values as given in patent publication US20170291959A1 (SORRENTO THERAPEUTICS, published 2017).
Blank lines part the entries; values can stand above or below the binder they belong to.

Biological target: T1, CD38 on Ramos cells (human, UniProt P28907 1-300)
T1 construct: whole, on cells; also called CD38 expressing cells; Ramos target cells
Assay: ADCC assay on Ramos cells (binding inferred from it)
Experimental: The ability of anti-CD38 antibodies to bind to CD38 expressing cells and promote functional activity was determined using an antibody-dependent cell-mediated cytotoxicity (ADCC) assay. In this assay, Ramos cells, a Burkitt's lymphoma cell line, were added to wells at 5×10³ cells per well. Test antibodies (C38A2 (“38-A2”), C38D8 (“38-D8”) and C38D4 (“38-D4”) and control IgG) were then added at 1 microgram per ml and incubated with the Ramos cells for 20 minutes at 37° C. After washing, the effector cells were added at different concentrations resulting in three effector-to-target ratios. The effector cells were purified natural killer (NK) cells that had been incubated overnight in the presence of IL-2 (100 U/ml). The assay was allowed to proceed for at least 4 hours after which time cytotoxicity was evaluated using a Promega Cyto-glo kit.

binding result: binds
B1: C38D8 (antibody, V domains shown)
VH: QVQLVESGGGVVQPGGSLRLSCAASGFIVSTNYVHWVRQAPGKGLEWVSGIYSDPYTSYAYSDSVKGRFTISRDMSKNTVYLQMNRLRAEDTAVYYCARETNTGFSNSWYLDFWGQGTLVTVSS
VL: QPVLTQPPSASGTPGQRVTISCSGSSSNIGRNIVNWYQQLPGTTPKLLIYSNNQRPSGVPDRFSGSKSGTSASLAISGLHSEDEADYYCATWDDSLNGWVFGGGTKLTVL
notes: tested as an antibody beside an IgG matched control in the ADCC assay

binding result: binds
B2: C38A2 (antibody, V domains shown)
VH: QVQLVESGGGLVKPGGSLRLSCAASGFTFSDDYMSWIRQAPGKGLEWVASVSNGRPTTYYADSVRGRFTISRDNAKNSLYLQMNSLRAEDTAVYYCAREDWGGEFTDWGRGTLVTVSS
VL: QAGLTQPPSASGTSGQRVTISCSGSSSNIGINFVYWYQHLPGTAPKLLIYKNNQRPSGVPDRFSGSKSGNSASLAISGLRSEDEADYYCAAWDDSLSGYVFGSGTKVTVL
notes: as for B1
